Test results: patent US20260258115A1 (MAPP BIOPHARMACEUTICAL, published 2026)

Assays:
[1] = target: RSV fusion glycoprotein (RSV F) on RSV-A2 virus (respiratory syncytial virus, UniProt P03420 26-574); assay: cell-based or functional assay
[2] = target: RSV prefusion F (preF), DS-Cav1 (respiratory syncytial virus, UniProt P03420 26-513); assay: BLI, IgG on sensor, 100 nM antigen
[3] = target: RSV postfusion F (postF), F deltaFP (respiratory syncytial virus, UniProt P03420 26-513); assay: BLI, IgG on sensor, 100 nM antigen
[4] = target: RSV F on recombinant mKate-RSV A2 virus (Respiratory syncytial virus A2, UniProt P03420 26-574); assay: cell-based or functional assay
[5] = target: RSV F on recombinant mKate-RSV B 18537 virus (Respiratory syncytial virus B 18537, UniProt P13843 26-574); assay: cell-based or functional assay
[6] = target: T1, RSV postfusion F, subtype B (postF trimer) (Respiratory syncytial virus subtype B, UniProt P13843 26-513); assay: BLI, IgG apparent affinity
T1 construct: also called Postfusion subtype B

[7] = target: RSV F on RSV subtype A virus (RSV-A2) (Respiratory Syncytial Virus, subtype A, …, UniProt P03420 26-574); assay: cell-based or functional assay

| Binder | Neut IC50 (ug/ml) subtype A [4] [µg/mL] | Neut IC50 (ug/ml) subtype B [5] [µg/mL] | binding result [6] | Neutralization IC50 (RSV subtype A) [7] [µg/mL] | also measured |
| --- | --- | --- | --- | --- | --- |
| ADI-41448 (antibody, V domains shown, IgG1) VH: TVQLVESGAEVKSPGSSVRVSCQASGGSSNSYAISWVRQAPGQGLEWMGMISPLFGTTRFSQRFQGRVTITADKSTSTAYMELSSLNSEDTALYYCARGRFDFWSGPTRFYYTMDVWGQGTMVTVSS VL: QSVLIQPASVSGSPGQSITISCSGTSSDIGGYNYVSWYQQHPGKAPKLLISDVTDRPSGISDRFSGSKSGTSASLTISGLQADDEADYYCTSYTTSSTWVFGGGTKLTVL |  |  |  |  | Neutralization IC50 (RSV subtype A) [1]: > 25 µg/mL; Kd [2]: 2.75 nM; Kd [3]: 0.428 nM |
| ADI-21072 (antibody, V domains shown) VH: QVQLVQSGGGLVKPGGSLRLSCEASGFNFRSYHMSWVRQAPGKGLEWVSSITAGSSYINYADSVKGRFTISRDNAKNSVFLQMNSLSAEDTAVYYCAREGLNMGVGGTWFDPWGQGTLVTVSS VL: QAVVTQEPSVSGAPGQRVTISCTGSSSNIGAGYDVHWYQQLPGTAPKLLIYGNNNRPSGVPDRFSGSKSATSASLAITGLQADDEADYYCQSYDRSLSGSWVFGTGTKVTVL | 0.04 | 0.33 | no binding |  |  |
| ADI-21077 (antibody, V domains shown) VH: QVQLVESGGGLVKPGGSLRLSCVVSGFTFRDYYMSWIRQAPGKGLEWISYISPSSTYTNYADSVRGRFTISRDNAENSLYLQMNSLRAEDTAVYYCARVNIAATGAGGVFLDYWGQGTTVTVSS VL: QPVLTQPPSVSGAPGQRVTISCAGSSSNIGAGYDVHWYQQLPGTAPKLLIYGNINRPSGVPDRFSGSKSGTSASLAITGLQAEDEADYYCQSYDSSLSGSYVFGTGTKVTVL | 0.06 | 0.06 | no binding |  |  |
| ADI-41832 (antibody, V domains shown) VH: EVQLVESGGGLVQPGGSLRLSCAASGFTFSKYAMNWVRQAPGKGLEWVSSISDSGDSRYYADSVKGRFTISRDSSKNTLNLQMNSLRAEDTAVYYCAKAGWELFSPQGAFDLWGQGTMVTVSS VL: EIVMTQSPGTLSLSPGERATLSCRASQSVSSSHLAWYQQKPGQAPRLLIYGASSRDSGIPDRFSGSGSGTDFTLSISRLEPEDFAVYYCQHYGNSPYTFGQGTKVDIK |  |  |  | 0.19 |  |
| ADI-21064 (antibody, V domains shown) VH: EVQLVESGGEVKKPGASVKVSCKASGYIFSNHGVSWVRQAPGQGLEWMGWISAYNGNAIYAQNLQGRVTLTTDTSTSTAYMELTSLTSDDTAIYYCARESGATAAAVMDYWGQGTLVTVSS VL: DIVLTQTPLSLPVILGQPASISCRSSQSLVYSDGNTYLTWFQQRPGQSPRRLIYKVSNRDSGVPDRFSGSGSDTDFTLKISRVEAEDVGVYYCMQGIDWPRTFGQGTKVDIK | 0.03 | 0.12 | no binding |  |  |
| ADI-41451 (antibody, V domains shown, IgG1; also called Ab 735) VH: EVQLVESGGGLVQPGGSLRLSCAAAGFTFNNYEMHWVRQAPGKGLEWVSCVTSSGTATYYADSVKGRFTVSRDNAKKSLQLQMNSLRAEDTAVYYCARELYLGEDYYYGLDVWGQGTTVTVSS VL: SYELTQPPSVSVSPGQTASISCSGDKLRNKHTCWYQHKSGQSPVLLIYQDNRRPSGIPDRLSGSKSGTTATLTISWTQAMDEAEYYCQAWDSNSAVIFGGGTKLTVL |  |  |  |  | Neutralization IC50 (RSV subtype A) [1]: 0.84 µg/mL; Kd [2]: 1.82 nM; Kd [3]: 1.67 nM |
| ADI-21065 (antibody, V domains shown) VH: EVQLLESGGGLVQPGGSLRLSCAASGFTFSSYAMNWVRQAPGKGLEWVSGISGSGESTYYADSVKGRFTISRDSSKNTVYLQMNSLRADDTAVYYCAKDQGYGVVVPAATRALPPRRYGMDVWGQGTTVTVSS VL: not shown |  |  | no binding |  |  |
| ADI-41453 (antibody, V domains shown, IgG1; also called Ab 737) VH: QVQLVQSGAEVRKPGASVKVSCKASGYTFSIYDMNWVRQAPGQGLEWMGWMNPNSGNTGYAQKFQGRVTMTGDTSISTAYMELSSLTSEDTAVYYCAVMYGDYPGYWGQGSLVTVSS VL: SYELTQPLSVSVALGQTARITCGGNNIGSKSVHWYQQKPGQAPVLVIYRDAKRPSGIPERFSGSNSGNTATLTISGAQAGDEADYYCQVWDSNAWIFGGRTKLTVL |  |  |  |  | Neutralization IC50 (RSV subtype A) [1]: > 25 µg/mL; Kd [2]: 2.17 nM; Kd [3]: 0.403 nM |
| ADI-41829 (antibody, V domains shown) VH: EVQLVESGGGLVKPGGSLRLSCAASGFTSSGYNMNWVRQAPGKGLEWVSSISGSSSYIHYADSVKGRFTISRDNAKNSLYLQMNSLRAEDTAVYYCATVGALPGHFDNWGQGTLVTVSS VL: QAVVTQEPSVSGAPGQRVTISCTGSSSNIGAGYDVHWYQQLPGTAPKLLIYDNTNRPSGVPDRFSGSKSGTSASLAITGLQAEDEADYYCQSYDSRLTYVFGTGTKVTVL |  |  |  | 0.12 |  |
| ADI-21075 (antibody, V domains shown, also called Ab 320) VH: EVQLVESGGGLVKPGGSLRLSCAASGFSFSNYYMSWVRQAPGKGLEWISYISGGSTYANLADSVKGRFTISRDNTKNSMYLQMTSLRPDDTAVYYCARIHGTHGPFYFDYWGQGTLVTVSS VL: QSVLTQPPSVSGAPGQRVTISCTGSSSNIGAGYDVHWYQQLPGTAPKLLIHANSNRPSGVPDRFSGSKSGTSASLAITGLQAEDEADYYCQSYDNSLNAYYVFGTGTKLTVL | 0.03 | 0.48 | no binding |  |  |
| ADI-21081 (antibody, V domains shown, also called Ab 326) VH: EVQLLESGGGLVKPGGSLRLSCAASRFAFSNYYMTWIRQAPGKGLEWISNISGGSTFTNYADSVKGRFTISRDNAKNSVHLQMNSLRAEDTAVYYCVREASVAAGTPEGFDIWGQGTMVTVSS VL: QSVLTQPPSVSGAPGQRVIISCTGSSSNIGAGYDVNWYQQLPGTAPKLLMYGNRNRASGVPDRFSGSKSGTSASLAITGLQAEDEADYYCHSYDSSLGGSVFGGGTKLTVL | 0.1 | 0.32 | no binding |  |  |
| ADI-41834 (antibody, V domains shown) VH: EVQLLESGGRLVQPGRSLRLSCAASGFTVSGSYMSWVRQAPGKGLEWVSVIYIDGGTKYADSVKGRFTISRDNSKNTVYLQMNSLRAEDTAVYYCARDSSLWYRGGDYWGQGTLVTVSS VL: DIQMTQSPSSLSASVGDRVTITCQANHDISNYLNWYQQKPGKAPKLLIYDASILEAGVPSRFSGSGSGTHFTFTISSLQPEDIATYYCQQFDFRALTFGGGTKVEIK |  |  |  | 0.07 |  |
| ADI-41835 (antibody, V domains shown) VH: EVQLLESGGGLVQPGGSLRLSCAASGFTFSSYAMNWVRQAPGKGLEWVSIISDSGGSTYYADSVKGRFTISRDNSKNTLYLQMNSLRAEDTAVYYCAKATPLKWELLIGSTPGYYFDYWGQGTTVTVSS VL: SYELTQLPSVSVSPGQTASITCSGDKLGDKYACWYQQKPGQSPVVIMYQDNKRPSGIPERFSGSNSGNTATLTISGTQAMDEADYYCQAWDSSTGVFGGGTKVTVL |  |  |  | 0.45 |  |
| ADI-41830 (antibody, V domains shown) VH: QVQLVQSGPAVKKPGASVKVSCKASGYIFTSYGVSWVRQAPGQGLEWMGWISGYNGNTDYAQKFQGRVTLTVDSSTGTVYMDLRSLRSDDTAIYYCARAPPLPGQVYDGAGSYLLHGYWGQGTLVTVSS VL: not shown |  |  |  | 0.12 |  |
| ADI-41816 (antibody, V domains shown) VH: QVQLVQSGAEVKKPGASVKVSCEASGYTFTDSYIHWVRQAPGQGLEWMGWINPNSGGTNYAQKFQGRVTMTRDTSTSTAFIELSRLRSDDTAVYYSARGVRQQWLVNTGDPDYYFDFWGQGTLVTVSS VL: SYVLTQPPSVSVSPGQTASITCSGDKLGDKYSCWYQQKPGQSPVLVIYQDYKRPSGIPERFSGSNSGNTATLTISGTQAMDEADYYCQAWDRNAGVFGTGTKLTVL |  |  |  | 0.91 |  |
| ADI-41840 (antibody, V domains shown) VH: QVQLVQSGAEVKKPGSSVKVSCKASGDTFSGYAIYWVRQAPGRGLELMGGIIPILGTSSYAQRFLGRTSFTADESTSTAYMDLSSLTSADTAMYYCARKRVTVPVPFDSWGQGTLVTVSS VL: EIVMTQSPATLSVSPGERATLSCRASQSVSSNLAWYQQKLGQAPRLLIYGASTRATDIPARFSGSGSGTEFTLTISSLQSEDFVVYYCQQYNNWPWTFGQGTKVEIK |  |  |  | > 25 |  |
| ADI-41831 (antibody, V domains shown) VH: EVQLLESGGGLVKPGGSLRLSCAASGFTFSSYAMHWVRQPPGKGLEWVSSISASSSFINYADSVKGRFTISRDGARNSLYLQMNSLRAEDTAVYYCVREDYDSSGYGLHWFDPWGQGTTVTVSS VL: SYVLTQPPSVSGAPGQRVTISCTGSSSNIGAGYDVHWYQQFPGTAPKLLMYGNTNRPSGVPDRFSGSKSGTSASLAITGLQAEDEADYYCQSYDRSLSGWVFGGGTKLTVL |  |  |  | 5.21 |  |
| ADI-21079 (antibody, V domains shown) VH: EVQLLESGGGLVKPGGSLRLSCAASGFTFSDYYMSWIRQAPGKGLEWVSNISGGSTYTNYADSVKGRFTISRDNAKNSLYLQMNSLRAEDTAVYYCAREAYGSGNYYNPNWLDPWGQGTLVTVSS VL: QSVLTQPPSVSGAPGQRVTISCTGSSSNIGAGYDVHWYQQLPGTAPKLLIYGNRNRPSGVPDRFSGSKSGTSASLAITGLQAEDEADYYCQSYDSSLSGSVFGGGTKLTVL | 0.2 | 0.29 | no binding |  |  |
| ADI-43640 (antibody, V domains shown) VH: QVQLVQSGGGLVKPGGSLRLSCAASGFTFSSYSMNWVRQAPGKGLEWVSSISSSSSYIYYADSVKGRFTISRDNAKNSLYLQMNSLRAEDTAVYYCAREGRDGYNYNFDYWGQGTLVTVSS VL: QSVVTQPPSVSGAPGQRVTISCTGSSSNIGAGYDVHWYQQLPGTAPKLLIYGNSNRPSGVPDRFSGSKSGTSASLAITGLQAEDEADYYCQSYDSSLSGVVFGGGTKLTVL |  |  |  | > 25 |  |
